For 21 molecules, Kd results are on record in patent US20220144956A1 (published 2022).

To fix the notation:
B1: XENP36173 H1.190 L1 (antibody, V domains shown)
VH: QLQVQESGPGLVKPSETLSLTCTVSGGSISSSYFSWGWIRQPPGKGLEWIGSFYYGGKTYYNPSLKSRATISIDTSKNQFSLKLSSVTAADTAVYYCARGPTTIRGVIDSWGQGTLVTVSS
VL: EIVLTQSPATLSLSPGERATLSCRASQSVRSYLAWYQQKPGQAPRLLIYDASNRATGIPARFSGSGSGTDFTLTISSLEPEDFAVYYCQQRSNWPPTFGQGTKVEIK
B2: XENP36166 H1.183 L1 (antibody, V domains shown)
VH: QLQVQESGPGLVKPSETLSLTCTVSGGSISNSYFSWGWIRQPPGKGLEWIGSFYYGGKTYYNPSLKSRATISIDTSKNQFSLKLSSVTAADTAVYYCARGPTMIRGVFDSWGQGTLVTVSS
VL: EIVLTQSPATLSLSPGERATLSCRASQSVRSYLAWYQQKPGQAPRLLIYDASNRATGIPARFSGSGSGTDFTLTISSLEPEDFAVYYCQQRSNWPPTFGQGTKVEIK
B3: XENP35105 H1.30 L1 (antibody, V domains shown)
VH: QLQVQESGPGLVKPSETLSLTCTVSGGSISNSYFYWGWIRQPPGKGLEWIGSFYYGEKTYYNPSLKSRATISIDTSKSQFSLKLSSVTAADTAVYYCPRGPTMIRGVIDSWGQGTLVTVSS
VL: EIVLTQSPATLSLSPGERATLSCRASQSVRSYLAWYQQKPGQAPRLLIYDASNRATGIPARFSGSGSGTDFTLTISSLEPEDFAVYYCQQRSNWPPTFGQGTKVEIK
B4: XENP35104 H1.29 L1 (antibody, V domains shown)
VH: QLQVQESGPGLVKPSETLSLTCTVSGGSISNSYFTWGWIRQPPGKGLEWIGSFYYGEKTYYNPSLKSRATISIDTSKSQFSLKLSSVTAADTAVYYCPRGPTMIRGVIDSWGQGTLVTVSS
VL: EIVLTQSPATLSLSPGERATLSCRASQSVRSYLAWYQQKPGQAPRLLIYDASNRATGIPARFSGSGSGTDFTLTISSLEPEDFAVYYCQQRSNWPPTFGQGTKVEIK
B5: XENP36177 H1.194 L1 (antibody, V domains shown)
VH: QLQVQESGPGLVKPSETLSLTCTVSGGSISTSYFSWGWIRQPPGKGLEWIGSFYYGGKTYYNPSLKSRATISIDTSKNQFSLKLSSVTAADTAVYYCARGPTTIRGVIDSWGQGTLVTVSS
VL: EIVLTQSPATLSLSPGERATLSCRASQSVRSYLAWYQQKPGQAPRLLIYDASNRATGIPARFSGSGSGTDFTLTISSLEPEDFAVYYCQQRSNWPPTFGQGTKVEIK
B6: XENP36181 H1.198 L1 (antibody, V domains shown)
VH: QLQVQESGPGLVKPSETLSLTCTVSGGSISQSYFSWGWIRQPPGKGLEWIGSFYYGGKTYYNPSLKSRATISIDTSKNQFSLKLSSVTAADTAVYYCARGPTTIRGVIDSWGQGTLVTVSS
VL: EIVLTQSPATLSLSPGERATLSCRASQSVRSYLAWYQQKPGQAPRLLIYDASNRATGIPARFSGSGSGTDFTLTISSLEPEDFAVYYCQQRSNWPPTFGQGTKVEIK
B7: XENP36172 H1.189 L1 (antibody, V domains shown)
VH: QLQVQESGPGLVKPSETLSLTCTVSGGSISSSYFSWGWIRQPPGKGLEWIGSFYYGGKTYYNPSLKSRATISIDTSKNQFSLKLSSVTAADTAVYYCARGPTLIRGVIDSWGQGTLVTVSS
VL: EIVLTQSPATLSLSPGERATLSCRASQSVRSYLAWYQQKPGQAPRLLIYDASNRATGIPARFSGSGSGTDFTLTISSLEPEDFAVYYCQQRSNWPPTFGQGTKVEIK
B8: XENP36180 H1.197 L1 (antibody, V domains shown)
VH: QLQVQESGPGLVKPSETLSLTCTVSGGSISQSYFSWGWIRQPPGKGLEWIGSFYYGGKTYYNPSLKSRATISIDTSKNQFSLKLSSVTAADTAVYYCARGPTLIRGVIDSWGQGTLVTVSS
VL: EIVLTQSPATLSLSPGERATLSCRASQSVRSYLAWYQQKPGQAPRLLIYDASNRATGIPARFSGSGSGTDFTLTISSLEPEDFAVYYCQQRSNWPPTFGQGTKVEIK
B9: XENP36186 H1.203 L1 (antibody, V domains shown)
VH: QLQVQESGPGLVKPSETLSLTCTVSGGSISNAYFSWGWIRQPPGKGLEWIGSFYYGGKTYYNPSLKSRATISIDTSKNQFSLKLSSVTAADTAVYYCARGPTVIRGVIDSWGQGTLVTVSS
VL: EIVLTQSPATLSLSPGERATLSCRASQSVRSYLAWYQQKPGQAPRLLIYDASNRATGIPARFSGSGSGTDFTLTISSLEPEDFAVYYCQQRSNWPPTFGQGTKVEIK
B10: XENP36178 H1.195 L1 (antibody, V domains shown)
VH: QLQVQESGPGLVKPSETLSLTCTVSGGSISTSYFSWGWIRQPPGKGLEWIGSFYYGGKTYYNPSLKSRATISIDTSKNQFSLKLSSVTAADTAVYYCARGPTVIRGVIDSWGQGTLVTVSS
VL: EIVLTQSPATLSLSPGERATLSCRASQSVRSYLAWYQQKPGQAPRLLIYDASNRATGIPARFSGSGSGTDFTLTISSLEPEDFAVYYCQQRSNWPPTFGQGTKVEIK
B11: XENP36183 H1.200 L1 (antibody, V domains shown)
VH: QLQVQESGPGLVKPSETLSLTCTVSGGSISNAYFSWGWIRQPPGKGLEWIGSFYYGGKTYYNPSLKSRATISIDTSKNQFSLKLSSVTAADTAVYYCARGPTMIRGVIDSWGQGTLVTVSS
VL: EIVLTQSPATLSLSPGERATLSCRASQSVRSYLAWYQQKPGQAPRLLIYDASNRATGIPARFSGSGSGTDFTLTISSLEPEDFAVYYCQQRSNWPPTFGQGTKVEIK
B12: XENP34288 H1.1 L1 (antibody, V domains shown)
VH: QLQVQESGPGLVKPSETLSLTCTVSGGSISNSYFSWGWIRQPPGKGLEWIGSFYYGEKTYYNPSLKSRATISIDTSKSQFSLKLSSVTAADTAVYYCPRGPTVIRGVIDSWGQGTLVTVSS
VL: EIVLTQSPATLSLSPGERATLSCRASQSVRSYLAWYQQKPGQAPRLLIYDASNRATGIPARFSGSGSGTDFTLTISSLEPEDFAVYYCQQRSNWPPTFGQGTKVEIK
B13: XENP36171 H1.188 L1 (antibody, V domains shown)
VH: QLQVQESGPGLVKPSETLSLTCTVSGGSISSSYFSWGWIRQPPGKGLEWIGSFYYGGKTYYNPSLKSRATISIDTSKNQFSLKLSSVTAADTAVYYCARGPTMIRGVIDSWGQGTLVTVSS
VL: EIVLTQSPATLSLSPGERATLSCRASQSVRSYLAWYQQKPGQAPRLLIYDASNRATGIPARFSGSGSGTDFTLTISSLEPEDFAVYYCQQRSNWPPTFGQGTKVEIK
B14: XENP36174 H1.191 L1 (antibody, V domains shown)
VH: QLQVQESGPGLVKPSETLSLTCTVSGGSISSSYFSWGWIRQPPGKGLEWIGSFYYGGKTYYNPSLKSRATISIDTSKNQFSLKLSSVTAADTAVYYCARGPTVIRGVIDSWGQGTLVTVSS
VL: EIVLTQSPATLSLSPGERATLSCRASQSVRSYLAWYQQKPGQAPRLLIYDASNRATGIPARFSGSGSGTDFTLTISSLEPEDFAVYYCQQRSNWPPTFGQGTKVEIK
B15: XENP36179 H1.196 L1 (antibody, V domains shown)
VH: QLQVQESGPGLVKPSETLSLTCTVSGGSISQSYFSWGWIRQPPGKGLEWIGSFYYGGKTYYNPSLKSRATISIDTSKNQFSLKLSSVTAADTAVYYCARGPTMIRGVIDSWGQGTLVTVSS
VL: EIVLTQSPATLSLSPGERATLSCRASQSVRSYLAWYQQKPGQAPRLLIYDASNRATGIPARFSGSGSGTDFTLTISSLEPEDFAVYYCQQRSNWPPTFGQGTKVEIK
B16: XENP36168 H1.185 L1 (antibody, V domains shown)
VH: QLQVQESGPGLVKPSETLSLTCTVSGGSISESYFSWGWIRQPPGKGLEWIGSFYYGGKTYYNPSLKSRATISIDTSKNQFSLKLSSVTAADTAVYYCARGPTLIRGVIDSWGQGTLVTVSS
VL: EIVLTQSPATLSLSPGERATLSCRASQSVRSYLAWYQQKPGQAPRLLIYDASNRATGIPARFSGSGSGTDFTLTISSLEPEDFAVYYCQQRSNWPPTFGQGTKVEIK
B17: XENP36182 H1.199 L1 (antibody, V domains shown)
VH: QLQVQESGPGLVKPSETLSLTCTVSGGSISQSYFSWGWIRQPPGKGLEWIGSFYYGGKTYYNPSLKSRATISIDTSKNQFSLKLSSVTAADTAVYYCARGPTVIRGVIDSWGQGTLVTVSS
VL: EIVLTQSPATLSLSPGERATLSCRASQSVRSYLAWYQQKPGQAPRLLIYDASNRATGIPARFSGSGSGTDFTLTISSLEPEDFAVYYCQQRSNWPPTFGQGTKVEIK
B18: XENP36176 H1.193 L1 (antibody, V domains shown)
VH: QLQVQESGPGLVKPSETLSLTCTVSGGSISTSYFSWGWIRQPPGKGLEWIGSFYYGGKTYYNPSLKSRATISIDTSKNQFSLKLSSVTAADTAVYYCARGPTLIRGVIDSWGQGTLVTVSS
VL: EIVLTQSPATLSLSPGERATLSCRASQSVRSYLAWYQQKPGQAPRLLIYDASNRATGIPARFSGSGSGTDFTLTISSLEPEDFAVYYCQQRSNWPPTFGQGTKVEIK
B19: XENP37821 TBRII-A_H1.274_L1 (antibody, V domains shown)
VH: QLQVQESGPGLVKPSETLSLTCTVSGGSISNAYFSWGWIRQPPGKGLEWIGSFNYGGKTYYNPSLKSRATISIDTSKNQFSLKLSSVTAADTAVYYCARGPTLIRGVIDSWGQGTLVTVSS
VL: EIVLTQSPATLSLSPGERATLSCRASQSVRSYLAWYQQKPGQAPRLLIYDASNRATGIPARFSGSGSGTDFTLTISSLEPEDFAVYYCQQRSNWPPTFGQGTKVEIK
B20: TBRII-A_H1.1_L1 (antibody, V domains shown)
VH: QLQVQESGPGLVKPSETLSLTCTVSGGSISNSYFSWGWIRQPPGKGLEWIGSFYYGEKTYYNPSLKSRATISIDTSKSQFSLKLSSVTAADTAVYYCPRGPTVIRGVIDSWGQGTLVTVSS
VL: EIVLTQSPATLSLSPGERATLSCRASQSVRSYLAWYQQKPGQAPRLLIYDASNRATGIPARFSGSGSGTDFTLTISSLEPEDFAVYYCQQRSNWPPTFGQGTKVEIK
B21: TBRII-A_H1.51_L1 (antibody, V domains shown)
VH: QLQVQESGPGLVKPSETLSLTCTVSGGSISNSYFSWGWIRQPPGKGLEWIGSFNYGEKTYYNPSLKSRATISIDTSKSQFSLKLSSVTAADTAVYYCPRGPTMIRGVIDSWGQGTLVTVSS
VL: EIVLTQSPATLSLSPGERATLSCRASQSVRSYLAWYQQKPGQAPRLLIYDASNRATGIPARFSGSGSGTDFTLTISSLEPEDFAVYYCQQRSNWPPTFGQGTKVEIK

The first assay deals with T1, human TGFßRII (antigen of the Octet experiments) (human, UniProt P37173 23-166).
T1 sequence (P37173 23-166): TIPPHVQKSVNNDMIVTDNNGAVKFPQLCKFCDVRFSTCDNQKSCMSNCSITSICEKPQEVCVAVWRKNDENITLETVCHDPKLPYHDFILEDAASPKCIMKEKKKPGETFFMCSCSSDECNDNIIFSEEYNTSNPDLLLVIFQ
As for B1, the dissociation constant Kd (commonly a measure of binding affinity in units of concentration) was 9.24 nM. The same measure, in the same setting: for B2 the value was 6.15 nM; for B3, 15.4 nM. Same read-out and setting: next, B4: 2.43 nM; B5: 9.77 nM. Still for that read-out and setting: next, B6: 8.4 nM; B7: 6.99 nM. As to B8, the Kd was found to be 6.07 nM.

In turn, B9 had a Kd of 6.44 nM. Same read-out and setting: next, B10: 8.42 nM; B11: 3.02 nM. Still for that read-out and setting: next, B12: 4.26 nM; B13: 4.19 nM; B14: 8.43 nM.

Take B15: binding was put at a Kd of 3.69 nM.

In turn, B16 showed a Kd of 7.26 nM.

With B17, the Kd amounted to 7.43 nM.

As to B18, the Kd is 7.15 nM.

The target of the next assay is T1, human TGFßRII (antigen of the Octet …). The source holds these as a separate data set.
B19 returned a Kd of 16.8 nM.

B20 returned a Kd of 2.1 nM. As for B21, the affinity, expressed as Kd, was 53 nM.
